# According to article PMC6542180:
# Molecular target: endogenous SHP-1 (UniProt P29351)
# Assay: GST pull-down of endogenous macrophage SHP-1
# Conditions: reference: wild type
substance,measurement,setting,value
EHEC (EDL933) Tir (from UniProt Q7DB77) Y490F,binding against the reference,sites Y490,weaker
EHEC (EDL933) Tir (from UniProt Q7DB77) Y519F,binding against the reference,sites Y519,weaker
